PMC3315493

Experiments:
[1] = molecular target: tetherin Y6,8A (stably expressed in 293T/tetherin Y6,8A cells) (UniProt Q10589); assay: co-immunoprecipitation (anti-tetherin IP, Western blot, LiCor quantitative imager); details: MOI of 2, 48 h post infection
[2] = molecular target: Vpu of wildtype HIV-1 NL4.3 (expressed from the virus); assay: as above; details: 293T/tetherin Y6,8A cells, MOI of 2, 48 h post infection, read off a plot

Row | Substance | response (ratio Vpu/tetherin band intensity in IP) ([1]; UBAP1 siRNA, parent: est. 1.3, read off a plot) | response (ratio Vpu/tetherin band intensity in IP) ([1]; control siRNA, parent: est. 1.6, read off a plot) | response (ratio Vpu/tetherin band intensity in IP) ([2]; UBAP1 siRNA) | response (ratio Vpu/tetherin band intensity in IP) ([2]; control siRNA)
1 | Vpu of wildtype HIV-1 NL4.3 (expressed from the virus) E59A; L63A; V64A | 0.9 | 0.5 | – | –
2 | human tetherin (stably expressed in 293T/tetherin cells) (from UniProt Q10589) Y6A; Y8A | – | – | 1.3 | 1.6
